Test: soluble on expression in E. coli; label from the status in PepcDB or PDB records

Sequence	soluble on expression in E. coli
MSLNFTLHTLNGIKLWLVLLLLSGAINVCRADSPRQTINFNRGWKYCQGDFDHAARPGFDDSEWEKIGLPHSFSTPYFMSKDFYVGYGWYRKAFPVKKEILGKKSFLEFDGVFQEAEIFVNGHLAGTHKGGYTGFSIDISAYLKEGKNLVAVRVNNCWRPDLAPRAGEHVFSGGIYRNVRLVIKPPTYIDWYGTWITTPDLAENKGKSGSVHIRTDVCNASGKTDTYRLLTTVVDAQGKEVSSVSTSQVLPDNATYTFEQQTKEIQAPQLWHPNHPALYKVISSLYHGQELIDRYETAFGFRWFEWTADRGFFLNGEHLYFKGANVHQDHAGWGDAVTETGMRRDIRLVKEAGFDLIRGSHYPHSPAFSQACDEIGMLFWAENAFWGIGGHKGDGYWNASAYPVNESDRAEFENSVKAQLKELIRIHRNHPSIIVWSMSNEPFFTAPETINPMRKLLEETVKLSKQLDPTRPAAVGGAQRPLGEKRIDKLGDIAGYNGDGSYIPEFQQPGMPTVVSEYGSTTADRPGEYDPGWGDLAKNNAQNGFPWRSGQAIWCAFDHGSIAGSALGKMGIIDYFRIPKRAWYWYRNAYKGITEGHHHHHH	not soluble
MVRYYHIEMLACPECRNPRLILYVVREKRGAMPPQPERLKCRRWCYLFDRPASTVPLSTCVSSCVERDIEEGVLVCPACGRWYPIVEGIPVMMDDKYRDPERDREIASRLAGHVPEWVKLRAVAPVPLEPREAGEG	soluble
MSLRHLQSTIHPELDHLDDKIIFQRNAARAIVLDGEDVLLLYTERYHDYTLPGGGIDEGEDVIAGLVRELEEETGAQNIHSIKPFGIFEEFRPWYKDDADVMHMISYCYTCKIDRELGETAYEDYEVKNGMRPVWMNVHEAIAHNEKTMAESPKKGMSIERETFLLHLIAKELLEGHHHHHH	soluble
MDKRISIAIDGPAAAGKSTVAKVVAKKLSYVYIDTGAMYRTITYAALEQKVDIENEEQLMEVVKNVKIEFQQGENTQLVFLNGQDVSEVIRTPEVTNRVSIVAKHRLVREEMVRRQQELAEKGGVVMDGRDIGTHVLPDAEVKIFMLASVEERAERRHLENMNKGFDSNLEQLKEEIAQRDKLDSEREVSPLKKADDALELDTTSLSIEEVVQKIMGIVLGVFAK	not soluble
GLSAAQRQVVASTWKDIAGSDNGAGVGKECFTKFLSAHHDMAAVFGFSGASDPGVADLGAKVLAQIGVAVSHLGDEGKMVAEMKAVGVRHKGYGNKHIKAEYFEPLGASLLSAMEHRIGGKMNAAAKDAWAAAYADISGALISGLQS	soluble
PEDPSDLLQHVKFQSSNFENILTWDSGPEGTPDTVYSIEYKTYGERDWVAKKGCQRITRKSCNLTVETGNLTELYYARVTAVSAGGRSATKMTDRFSSLQHTTLKPPDVTCISKVRSIQMIVHPTPTPIRAGDGHRLTLEDIFHDLFYHLELQVNRTYQMHLGGKQREYEFFGLTPDTEFLGTIMILVPTWAKESAPYMCRVKTLPDRTWT	soluble
MSLITVVIIDDDPFVTKSLQTILESTKEIRVLGIGHCAKDALVLYETHRPDVLLTDIRMPKQTGIDAAKEILAKFPKAILLLLTTFKDEEYIREAFSIGVKGYLIKQNLQAIIPSVKSAYNGQAVFGNEIIETFTQMMKNKPTIDSHAYASFSERELAIIKEVAAGKNNKEIADALYLSDGTVRNYISQLLEKLDLRDRTQLAIYFYQHLQEGHHHHHH	not soluble
MSIEVPISIPKTLIIIPAYNEEEAIADTLTRLLELKQHFTALSICVINDGSQDKTAQIVKNFPVHLINLPYNLGIGSAVQTGYKYAYENGYDIAIQFDADGQHNPDDLYKIIQPIAEGQCDMVLGSRFTEKTAYKGSISRRIGIFYFTALLKVLTKQTFMDPTSGYRAINREVITIFAHNYPKDYPEPEVLIHLKKKKLRINEISVNMQERQGGQSSITPLKSAYYMIKVSLAILMQKIVKGLEHHHHHH	not soluble
AHHHHHHGSMLKEVHELLNRIWGDIFELREELKEELKGFTVEEVSEVFNAYLYIDGKWEEMKYPHPAFAVKPGGEVGATPQGFYFVFAFPKEELSKEFIEDVIRAFEKLFIYGAENFLEDFYNFEHPISGDEVWDRIVNSDEEMINFEVDLGFDKEEVKREIKRFIELARRYNLL	soluble
MFERYQAGEQAVLVHLDFPDESSREDLSEFKMLVSSAGVQALTVVTGKRNTPHPRFFVGSGKAEEIRDAVHLVGANVVLFNHSLTPSQEKNIEALCECRVVDRTTLILDIFAQRARTHEGKLQVELAQLRHMSSRLIRGWTHLERQKGGIGLRGPGETQLETDRRLLRERMVNIRKRLGKVEVQRQQGRRARTRAELPTLSLVGYTNAGKSTLFNTLTQSDVYAADQLFATLDPTLRKIDLFGVGRVILADTVGFIRHLPHDLVAAFKATLTETREAELLLHVVDISDDRRSENIEQVEYVLKEIEANDVPQLIICNKIDNLDDIEPRIDRDDQGMPIRVWLSAQANIGTELLFTALAERLDIQVVNHQLSIPPSAGKLRGELYKLNCVTSETYDEQGHCHLEVNMPSREWERLISTKYSELVDYIEHLEHHHHHH	not soluble
GSHMAPGFTISFVNKTIIVTGGNRGIGLAFTRAVAAAGANVAVIYRSAADAVEVTEKVGKEFGVKTKAYQCDVSNTDIVTKTIQQIDADLGPISGLIANAGVSVVKPATELTHEDFAFVYDVNVFGVFNTCRAVAKLWLQKQQKGSIVVTSSMSSQIINQSSLNGSLTQVFYNSSKAACSNLVKGLAAEWASAGIRVNALSPGYVNTDQTAHMDKKIRDHQASNIPLNRFAQPEEMTGQAILLLSDHATYMTGGEYFIDGGQLIW	soluble
MSLAAPNAASGVLKLYRAYREQAQRLSDLSDLLAREGHETALSSTRLPIDEVRHVFENRPAYFHAIDAAAEELHKQLSTGDDLASGLRAWLQKNHGIVVRTLPVHAMPNLRRRYDRHSMRLFLSERLSQPDQLREMAMETCLLALREEIGTELEALGLKGEEARRIARFELARYAAHALMMPYGAFLAAAQRAKYDLDVLRSRFNVSFEQAANRLVSLQRPTTAAIPFFLMEIDNAGNRFRLAGAGGFPRARFGGLCPRLNIHAAFAQPGQVLVESVEMPDGDAFLTVSRTLEGEGHHHHHH	not soluble
MEKVKVKNPIVELDGDEMARVMWKMIKEKLILPYLDIQLVYFDLGIKKRDETDDQITIEAAKAIKKYGVGVKCATITPDAERVKEYNLKKAWKSPNATIRAYLDGTVFRKPIMVKNVPPLVKRWKKPIIIGRHAYGDIYNAVEAKVEGPAEVELVVRNKENKTLLVHKFEGNGVVMAMHNLEKSIRSFAQSCINYAISEKVDIWFATKDTISKVYHAYFKDIFQEEVDKRKEELEKAGVNYRYMLIDDAAAQILRSEGGMLWACMNYEGDIMSDMIASGFGSLGLMTSVLVSPDGVYEFEAAHGTVRRHYYRYLKGEKTSTNPTASIFAWTGAIRKRGELDGTPEVCEFADKLEKAVINTIESGVITKDLQPFTEPPIDKYVTLEEFIDEVKKNLEKLL	soluble
MERKHHFVLVHNAYHGAWIWYKLKPLLESAGHRVTAVELAASGIDPRPIQAVETVDEYSKPLIETLKSLPENEEVILVGFSFGGINIALAADIFPAKIKVLVFLNAFLPDTTHVPSHVLDKYMEMPGGLGDCEFSSHETRNGTMSLLKMGPKFMKARLYQNCPIEDYELAKMLHRQGSFFTEDLSKKEKFSEEGYGSVQRVYVMSSEDKAIPCDFIRWMIDNFNVSKVYEIDGGDHMVMLSKPQKLFDSLSAIATDYM	soluble
DKPLSNMKILTLGKLSRNKDEVKAMIEKLGGKLTGTANKASLCISTKKEVEKMNKKMEEVKEANIRVVSEDFLQDVSASTKSLQELFLAHILSSWGAEVK	soluble
MGGSHHHHHHGMASPLLTQQIQDEDDQYSLVASLDNVRNLSTILKAIHFREHATCFATKNGIKVTVENAKCVQANAFIQAGIFQEFKVQEESVTFRINLTVLLDCLSIFGSSPMPGTLTALRMCYQGYGYPLMLFLEEGGVVTVCKITTQEPEETLDFDFCSTNVINKIILQSEGLREAFSELDMTSEVLQITMSPDKPYFRLSTFGNAGSSHLDYPKDSDLMEAFHCNQTQVNRYKISLLKPSTKALVLSCKVSIRTDNRGFLSLQYMIRNEDGQICFVEYYCCPDEEVPESES	not soluble
MLRHNVPVRRDLDQIAANNGFDFHIIDNEIYWDESRAYRFTLRQIEEQIEKPTAELHQMCLEVVDRAVKDEEILTQLAIPPLYWDVIAESWRARDPSLYGRMDFAWCGNAPVKLLEYNADTPTSLYESAYFQWLWLEDARRSGIIPRDADQYNAIQERLISRFSELYSRELFYFCCCQDTDEDRSTVLYLQDCAQQAGQESRFIYIEDLGLGVGGVLTDLDDNVIQRAFKLYPLEWMMRDDNGPLLRKRREQWVEPLWKSILSNKGLMPLLWRFFPGHPNLLASWFEGEKSQIAAGESYVRKPIYSREGGNVTIFDGQNNVVDHADGDYADEPMIYQAFQPLPRFGDSYTLIGSWIVDDEACGMGIREDNTLITKDTSRFVPHYIAG	not soluble
MWGKKDAGTELTNYQTLATNTIGMMKGVDGYAFTSGAKMTDTLIQAGAAKGMTVSGDPASGSATLWNSWGGQIVVAPDTAGGTGFNNGFTITTNKVPQSACVSISTGMSRSGGTSGIKINGNNHTDAKVTAEIASSECTADNGRTGTNTLVFNYNG	soluble
MGSDKIHHHHHHMSKSITRKIQLTGGSTYIVSLPKEWIKALSLSAGDEVEIYQDTDMKLLIVPKSANTTDQKEIKKIIHCDNVTSEAIIREFIAYYIAGFSSVSITCPRMSSSTRAYIKDVVRRRLLGAEVIEEDVSTISIQFLVDEKELSIKKAISRAFTISYNMLRDSLEAISKADIELAKEISGRDDEVDRFFFYIARQLTISVKAINVLDSEGYNLTQMVDIYSVAKTIERVGDHANRIASLVEDVSKFSNKEDLVNLGLTILESYKSAMNAFLNEKKDIAHSLISNIEIFEKLRELQEIAIKSNDNPKIITSTSMTVESLRRVARYSADIAEATIDILAKSNK	not soluble
MGGGRMGQHVETLVIGAGPAGLTTAYTLAKAGRGVTVLEMDETYVGGISRTVDYKGFKFDIGGHRFFSKSQEIVDLWNEILPDDFIDRPRLSRIYYREKFYAYPLKAFEALANLGVWTAAKCMASFGWAKLTPIAAPTTFHQWVRNQFGEKLFSIFFKTYTEKVWGMSCDEISADWASQRIKGLDLGAAIIDGVKRSLGLRGKAAEGGPKTLIESFRYPRKGPGMMWEACADKVMALGGDVRMGRKVDGLHFDKIAKLWTVAVTCADGRKEIYTADNVVSSAPIRELMQSISPTPISVFHAGELMYRDFITVVLIGKPQKELPDNWIYIHDPSVKVGRVQNFRSWSPEMIPDGVSTCLGLEYFCFEGDGLWVTSDEELVAQAKREIGKIGLMAPADVYDACVVRQHKAYPVYDDAYAEHVKMIRLDLKMHFPGLHLVGRNGMHKYNNQDHAMMTGLLTAENIIAGETLHDVWEVNEDAEYGEAGVSGARQALRSERAVPTKVAALEHHHHHH	not soluble
MNQLIFDFAAHDYPSFDKFLGTENAELVYVLRHKHGQFIYVWGEEGAGKSHLLQAWVAQALEAGKNAAYIDAASMPLTDAAFEAEYLAVDQVEKLGNEEQALLFSIFNRFRNSGKGFLLLGSEYTPQQLVIREDLRTRMAYCLVYEVKPLTDQEKIDALASMAAARQVTVDSEIFEYLLKHWRRDMDSLMMMLDTLDNYAVTMGKRITLPLLRQLLKQQETQ	not soluble

— the DeepSol protein solubility set
